Assay results from the DeepSol protein solubility set.

test: soluble on expression in E. coli; label from the status in PepcDB or PDB records

Soluble on expression in E. coli, not soluble:
MGSDKIHHHHHHMNQSKTAIVIDSSANIAPEIVRKYHFTIVNQPVMFGKHVYHENMDIDSDEFYRMLKLEKYHPTASQIPMKEMQEVFSNLAQAGYEAALCIGLSGGLSGFINSVSASVPAIKDLQVYPYDSGSILAGVEKVAILASHLLDNGVDIHEVLHQMRKYRRQTQAYIAVNNIKELQNMGNISNRTSLVGSFFGMRPILTINHQGRLEMVGKERQMKNAMEAIEEIFDKQLVDHTNLVVTVIDANDVDRSMQWQSTLKAKYPGMQVESQQIGPYVGTYTGSKAIGLIWSPKL
MGSDKIHHHHHHMNQSLRPDKAALVELFRDFIEPQYVINDEETQKPFECDGLSVYCDMPLITVLPKTVEQVCEVMRICYRYQIPVVARGAGTGLCAGAMPNPDGVLLVLSRFKHILDIDPLARSARLQPGVRNLAISEAASPYGLYYGPDPSSQIACSIGGNVAENSGGVHCLKYGLTTHNLLKIEMVTVEGELITIGSEGLDSNGFDLMALITGSEGLLGVITEVTVKLLPSPEKAQVIMAGFDNVQTAGDAVGGVIAKGIIPAGLEMMDSPAIIAAEAFAHAGYPTDAQALLLCELDGSEAEVQEQIAEVEQLFIELGATTTRVSQSEAERALLWKGRKSAFPAVGRISPDYYCMDGTIPRSQLAHVLTEMQKLSEQYGLRVANVFHAGDGNLHPLILFDANVPGELERTEEFGSRILELCVKVGGCITGEHGVGVEKIRQMTIQFNDQELTQFHAIKHAFDPIGTLNPGKGIPVLKRCQEYRTLDRPQHKHDSQPQQGDLA
MGSDKIHHHHHHMNRPLFDLDLLRALVMVADCGSFTTASARLHSTQSTVSQKVRRLEEIAGHRLLDRGTRDVRPTDAGVTVLSYARRMIALNDEMLEALSGATVALTIRLGVPDDFAAGRTTHALAAFKRDHPQVKLEVTCGLSRDICAAYDRGELDLVLIKQRRDSREAVVRWPEKLRWIDSARHPTIELDPVPLVVFPPRGLYRDDMIKAIEERGRRWRISFTTSSLSGIQAAVADGLGISVLPARAVTDDHVVLTDEHGGFAPIGNMDIAILHRPTADPMVSELTKALAAMLEHEPE
MGSDKIHHHHHHMNSKYNFQYFQGSSLSDLFAQDITDGSYGFILNYPATASWAAYPNRKKYFIQDGSSEASKTSFDKICQKEPWKNLAVLGDRIPGIVIIPPPKPLLEYWQEHFGFKHSNIEMMDCSTYLDDLSHSDRFDKLITLFPFDCLKPEKHAVTSDTHYRLLSKVTLEEIGVQCPKYKSYNLHQVNIVDIQLPQFPYLIKTSHGLSGEGTYIIKNPSDLNYCLEEINKYLDIKLLDTIIVSEFIKNEVQNYCVQFYVNKAGEITLIGTTGQLVTPEGNYLGGVIDYGKTDMSKFFEMIANVGDYAHKQGYFGVIGFDVLENQDGQFYAIDANFRVNGSTPLCLQRHTLLRLGKEVAKYSSSYRMEGTLESILITLKPELDRKDLIILSALEKAKYGKIYTELYAIVTGETIAQMQYIEQQLQTKGLQLLS
MGSDKIHHHHHHMNSLEQLRQAEQALLEIFSGIDAQVKQNLKRVLEAFRNQRVGAHHFAGVSGYGHDDLGRETLDKVFAEVMGAEAAAVRVQFVSGTHAIACALFGVLRPGDEMLAVVGSPYDTLEEVIGLRGQGQGSLIEFGIKYRQLELTSQGSIDWQTLSTSITDNTRLVLIQRSCGYSWRPSLSIADIEKVVNLVKQQNPDTVCFVDNCYGEFIETQEPTHVGADLMAGSLIKNPGGTIVTAGGYVAGRADLVEAAACRLTAPGIGSYGGATFDQNRLLFQGLFLSPQMVGEAMKGTHLTGYVFDKLGYPVNPAPLAPRGDVIQAIKLGSGKKLIAFCKAVQQNSPVGSYLDPVPDDMPGYESQVVMAGGTFIEGSTLEFSADGPLREPYVVYCQGGTHWSHVAIALEAAIDAVGEA
MGSDKIHHHHHHMNSMDATAAHHTSPNATLVYDIRHSRYLNITGRCTLRCGFCPKQQGSRQIHQYQLALDKQPGVDDLLPLLGDVDTFDEYVFCGYGEPTLNLPTLLGVARAIKSQGGRIRVNTDGLGNLFHKRNILPELADCVDALSVSLNAQDEFTYLKHCQPRLKGSWQAVNDFIRMAPAYIKRVEVSAIDGLPGVDIPACRALVEAAGCTFKHRKLDIMG
MGSDKIHHHHHHMNTDLTLVIMAAGLGSRFGGDKQLASLGPSGEPMLVLSILSAIRSGFQRAVLVIRPELEAELTGILTQFLPANFEYHFCYQSLSDLPQDAKLADLSHRLKPWGTAHALWCARDWVKGPMAVINADDFYGDSAFASLAKGLTARPNDWMMVAYPIELTLSEHGGVNRGLCQVAQGQLRSVAEWLNIQAQDDGFVGEGPNGLAKLPLQSLVSMTCWGFSPSIFNVIKQQLTAFIEQQGQLPKSECYLPAVVQAAIEQGVPVYVDVASEPWLGVTYPQDTVWVKQKLMELLGDKTH
MGSDKIHHHHHHMNTKDLAYFDELISQKNFSKVAKTFGVSQPTVTTAIKRLESEFGAPLVIRDRVKNTLHVTASGAQLAEHAKIVLHELRLAHQEIDNLSQNRLILGLPPIIENHYFPKIGARLAAEGLLAGLETIEGGSIWLRNAVRDGRVDMTLLGSVEPLAYQTLIAEEFDRQPFCIYVSKQHPLAQRKRVYFNELRREKFVFFNSNFIHNTAFNKLTRRNHFRPNIVFRSNDTHVLMKLIGENVGIGFFTKIVDHYRTDVVRLDLMDIEPPEFITSIVYRTTHILTPVQQQLLTILHETLAVDTDQTD
MGSDKIHHHHHHMNWESTPVLMLTPFHHMQRGNTLTTLRLQTALRQRGFTVDLLSLEEKGWRDSLREYLINGKYSLVHGFNARYFGGVLTEFPELRNLPLILTTTGSDLNYDLKNSGRDLVLAAFAAAEKIIVFHDYFQKLIGDAYPEYCSKLSTIPQGVWLEESPPIKREMIGLAADNIVFALPSGLRPVKDIELAIDGLQRVYKDFPELRLLIIGPVIDRDYGQKIKQRVSELNWVFYLGEVLHSDMGNYLSLADVILNTSQAEGQPQGLLEGMSQNKPAILTAVPGNLDIIEEGRQGYYVRNQEELAVAARKMLSSAESRQRMGWEAGKLVKEKFSLAREIQSYAELYRQVLSP
MGSDKIHHHHHHMNWMDQPDLYSRYKIFLEILQSKEHISLFDPRLKRYTDILIDLEKPFTTWSTPNHIILVHKTLCLRHFPNKYESSAKRPVLILPPQAGHHSNLADYSPAQSLVRVFHRYGYDVYVTQWLSATTEYKDLGIEDYIRLTDEAVEEVRKRTGVYKIHLVGQCQGGWQASIYTSLFPDKISTLVSAAAPIDVNAKPSPIVEYAQKLSIDVFRFMVNSGGGVMPGKFILQGFKSMQPEEHYVRKYFRLWQMIKEGDEDGVKRFIHFENWYQYTQNLPGRFYLEIVKNIFKENNLTKPGSFQLDGRPVDLRNISCPVIIMAGKKDHITPPEQAFALKNYISTPAADVIEILTEGGHIGTLMGTESLREDWTAVNEVLKLAI
MGSDKIHHHHHHMNYQQLFRNRLAVLATMHQKEKVIAPLLEQELGIKVIVPPDFNTDIFGTFTREVKRPGTQIAAARLKAEKVLELTGENLAIASEGSFAPHPLVPYIYSNREIIILLDKINDIEIIGEEFSTYTNFNHQAVESLDEAYTFAKKVGFPEHGLVVWFENSEKKCHEIIKGITQETALIEAINFGLEKSPNSKINLETDMRAIYNPTRMKNIEKATHNLLQKISSCCPQCHTPGFETTERIKGLPCELCHTPTTLTLRAIYQCKKCGFRQDKLFPNGIEFADPSQCVYCNP
MGSDKIHHHHHHMPARIQPTARQVRLGAELRKLRDAAGLTSRQAAALLGTNPAQMSQIEAGNAGVSGERVRKLGVQYASADMELVDALVEMATDRTRGWWEEYRDVLPPVFQDLAELEHHATFMRVVGTVHVPGLLQTQEYARAVFAYVVPELPVDELDLRVRHRMRRKLVLSERTVPYEAVIHESVLRTRVADRRVAVAQLDELLSQSERPNVSLRVIPFGVDGFAGAGAMMLYAGGRVPALDTVQRDAPYGSVFLDASAQLLAMRTLFRRVESAALPPAKSRDYIHRLTKEL
MGSDKIHHHHHHMPEAAFTHERRCSSLCAFVSSSQSPTTNAETIREARSSRCDKTSMTPSFKELKSRFGLDEINTTDAYIIEALIIMAAISLMMSRVIVDELRSLEARQREVEAAADADESASRLPRRRCSLAVERHAHLIQLYLMVELGYELPDLDELLLWASRNPNPHRDRLREQVERGEFGFGRH
MGSDKIHHHHHHMPEHDVRLQQLTVWLDEQLNDLFRDNAWGEVPAGSLTAASSDASFRRYFRWQGAGHSFVIMDAPPPQENCRPFVAIDHLLASADVHVPLIHAQDLERGFLLLGDLGTQTYLDIINADNADGLFADAIDALLKFQRLPMDAPLPSYDDALLRREVELFPEWYVGRELGLTFTDAQKATWQRVSQLLIDSALAQPKVLVHRDYMPRNLMQSTPNPGVLDFQDAVYGPVTYDITCLFKDAFVSWPQARVEGWLGDYWQQAQAAGIPVHAEFEAFHRASDLMGVQRHLKVIGIFARICHRDGKPRYLGDVPRFFAYINEVIGRRPELAELGELIAELQAGARA
MGSDKIHHHHHHMPIIATAAWSIPKKVADRFAQGGSSLTRYASVFDGVEVNSTFYRRHKTSTFATWEHSVPDAFRFAVKIPKEITHTSAMRDIAEPFDTFLEDIAPLGEKRGPLLCQLPPSLTFDVEVLQTAFKTMRDADDGPIVIEVRHKSWASAEALDLLKTYRIDRVLADPAPVWPVEDFDTPPKYVRLHGKPKIYYSSYTDDEIKSFSALLAPDSWCVFDNTASGAAIENALNMAEIR
MGSDKIHHHHHHMPKTISEQNLLRLIDTLVNEGKRVIGPKAAGTMTLYEPLATGEELNLGELPRRSAKETFFPLCETILTYERDREGVRVTDVDPGAIPETVLVAARPCDVAAAPVLDSVFSWDYQDEFYLSRRGKTTIIGLACARADDACFCTAVGLSTNDTKGSDLFLTTLTGGGYRCDVITDKGMALLAAHGGLFAEGDGTPAPLAEPALGKLDLEKIKQWLDNHFEDPLWEEIAERCAGCGACAFLCPACHCFDINDEGGEKKGARRKSWDACGFGKFTNHASGHNPRDVQPQRYRNRIMHKFKYYVDKFDQRLCTGCGRCIRACPVGIDIAEILSAIGTRDQGPGTGKD
MGSDKIHHHHHHMPLFTEAPKSLCILRLSAVGDVCHALAVVQHIQEYYPQTEMTWIVGKTEMGLLSSIPNITLIPYDKKTGWKGVLSLWKQLKNKQFDALLNMQTAFRASILSLGIKAKFKIGFGEKRSREGQWLFVNRRIRDPFSPHVLDGFMAFAEYIGVPKAEPKWELAISQDDYKFADQFIDFSRKNLLISPCSSKAEKDWLIEGYAEVANIAHQHNINVIFCSSPAKRELEIVEKITALCHFTPTNIAGKTNLKQLTALISKVDLVLSPDSGPAHIATTQGTPVIGLYAYHNPLRTAPYNNLDNVVSVYEENAQKEFGKPSSELPWATKLKGKNLMTEIQVEPVIGQMKKLGLF
MGSDKIHHHHHHMPLQQESARQERKPVILMSMGQQDRNGHAYQVMTHKYMQPVVDISDCIPLLIPTCFGVADIEQYLDMADGVYLSGAASNIDPSLYGQENLTPEKKQDLARDLVDIALIKGAVKRGLPILGICRGMQEMNIAFGGDLYQKVHDEDHLNDHREDPDTPPDVQYGASHSISMVKGSWLHKLLGDTIEVNSLHGQGIKTLGKGLEALALAEDGLVEALHAPYLPQFTLGVQWHPEWKALENPDSIKIFKAFGEACRRRAGSALDLRIDKAS
